{"source": "patent US20120039806A1", "about": "(BURNET INSTITUTE, published 2012)", "binders": {"B1": {"name": "Cire-ecto (soluble FLAG-tagged C-type lectin Cire, control) (receptor, mouse, not shown: small tags and cut ends)", "chain (part 1 of 2)": "NSGLHHILDAQKMVWNHR", "chain (part 2 of 2)": "VKVYKIPSSQEENNQMNVYQELTQLKAGVDRLCRSCPWDWTHFQGSCYFFSVAQKSWNDSATACHNVGAQLVVIKSDEEQNFLQQTSKKRGYTWMGLIDMSKESTWYWVDGSPLTLSFMKYWSKGEPNNLGEEDCAEFRDDGWNDTKCTNKKFWICKKLSTSCPSK", "modifications": "biotinylated with BirA where the filing says 'biotinylated' (ELISA, microarray)", "notes": "extracellular domain; Control lectin; The construct is described only as similar to the Clec9A constructs; also called mouse Cire/mDCSign; biotinylated Cire-ecto"}, "B2": {"name": "mClec12A-ecto (soluble FLAG-tagged mouse Clec12A, control) (receptor, not shown: small tags and cut ends)", "chain (part 1 of 2)": "NSGLHHILDAQKMVWNHR", "chain (part 2 of 2)": "YTTLATEMIKSNQLQRAKEELQENVFLQLKHNLNSSKKIKNLSAMLQSTATQLCRELYSKEPEHKCKPCPKGSEWYKDSCYSQLNQYGTWQESVMACSARNASLLKVKNKDVLEFIKYKKLRYFWLALLPRKDRTQYPLSEKMFLSEESERSTDDIDKKYCGYIDRVNVYYTYCTDENNIICEETASKVQLESVLNGLPEDSR", "notes": "extracellular domain; Control lectin"}, "B3": {"name": "hCLEC9A-ecto (tagged soluble ectodomain human Clec9A; stalk and CTLD) (receptor)", "chain": "not shown", "notes": "also called soluble FLAG-tagged h5B6; soluble human 5B6"}, "B4": {"name": "mClec9A-ecto (tagged soluble ectodomain mouse Clec9A; stalk and CTLD) (receptor)", "chain": "ASISARQNSGLHHILDAQKMVWNHRGARQDYKDDDDKTREQQERLIQQDTALVNLTQWQRKYTLEYCQALLQRSLHSGTDASTGPVLLTSPQMVPQTLDSKETGSDCSPCPHNWIQNGKSCYYVFERWEMWNISKKSCLKEGASLFQIDSKEEMEFISSIGKLKGGNKYWVGVFQDGISGSWFWEDGSSPLSDLLPAERQRSAGQICGYLKDSTLISDKCDSWKYFICEKKAFGSCI", "modifications": "enzymatically biotinylated with BirA at the biotinylation consensus sequence where the filing says 'biotinylated' (ELISA, protein microarray); unbiotinylated FLAG-tagged protein in the pull-down and in FIG. 6", "notes": "also called soluble FLAG-tagged m5B6; soluble mouse 5B6"}}, "key": {"[1]": {"target": "T1, RNF41 isoform encoded by RNF41 transcript variant 2 (Accession number NM-194358), GST-tagged, on the … (human, UniProt Q5R7T5 72-317 (Pongo abelii entry))", "T1 construct": "A bought array (Invitrogen); also called isoforms of RNF41; not shown: GST tag of the array protein", "T1 sequence": "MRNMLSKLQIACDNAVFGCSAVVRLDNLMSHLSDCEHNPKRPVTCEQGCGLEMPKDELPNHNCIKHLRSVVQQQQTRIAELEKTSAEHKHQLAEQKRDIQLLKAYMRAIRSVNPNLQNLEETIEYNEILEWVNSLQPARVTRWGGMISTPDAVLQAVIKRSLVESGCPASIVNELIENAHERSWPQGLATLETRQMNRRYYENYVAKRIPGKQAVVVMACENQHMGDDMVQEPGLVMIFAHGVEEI", "experiment": "human protein microarray (ProtoArray v4.1), biotinylated probe, Streptavidin-Alexa Fluor647", "procedure": "Biotinylated purified soluble mClec9A-ecto and Cire (control) were diluted to 50 μg/ml in Casein Washing Buffer (Invitrogen) and hybridised to Human protein microarrays using the “ProtoArray Human Protein Microarray v4.1 Protein-Protein Interaction (PPI) kit for biotinylated proteins” (Invitrogen, #PAH05241011) as per manufacturer's instructions. Binding of the biotinylated proteins was detected using Streptavidin-Alexa Fluor647, and images acquired using a fluorescence microarray scanner (GenePix4000B scanner, Axon Instruments). Positive interactions were identified using the ProtoArray Prospector software (Invitrogen)."}, "[2]": {"target": "T2, Spectrin (purified from human erythrocytes, Sigma, #S3644) (human, UniProt P02549 1-2419; P11277 2-2137)", "T2 construct": "mature; A bought native preparation; also called purified spectrin", "T2 sequence (P02549 whole entry, chain 1 of 2)": "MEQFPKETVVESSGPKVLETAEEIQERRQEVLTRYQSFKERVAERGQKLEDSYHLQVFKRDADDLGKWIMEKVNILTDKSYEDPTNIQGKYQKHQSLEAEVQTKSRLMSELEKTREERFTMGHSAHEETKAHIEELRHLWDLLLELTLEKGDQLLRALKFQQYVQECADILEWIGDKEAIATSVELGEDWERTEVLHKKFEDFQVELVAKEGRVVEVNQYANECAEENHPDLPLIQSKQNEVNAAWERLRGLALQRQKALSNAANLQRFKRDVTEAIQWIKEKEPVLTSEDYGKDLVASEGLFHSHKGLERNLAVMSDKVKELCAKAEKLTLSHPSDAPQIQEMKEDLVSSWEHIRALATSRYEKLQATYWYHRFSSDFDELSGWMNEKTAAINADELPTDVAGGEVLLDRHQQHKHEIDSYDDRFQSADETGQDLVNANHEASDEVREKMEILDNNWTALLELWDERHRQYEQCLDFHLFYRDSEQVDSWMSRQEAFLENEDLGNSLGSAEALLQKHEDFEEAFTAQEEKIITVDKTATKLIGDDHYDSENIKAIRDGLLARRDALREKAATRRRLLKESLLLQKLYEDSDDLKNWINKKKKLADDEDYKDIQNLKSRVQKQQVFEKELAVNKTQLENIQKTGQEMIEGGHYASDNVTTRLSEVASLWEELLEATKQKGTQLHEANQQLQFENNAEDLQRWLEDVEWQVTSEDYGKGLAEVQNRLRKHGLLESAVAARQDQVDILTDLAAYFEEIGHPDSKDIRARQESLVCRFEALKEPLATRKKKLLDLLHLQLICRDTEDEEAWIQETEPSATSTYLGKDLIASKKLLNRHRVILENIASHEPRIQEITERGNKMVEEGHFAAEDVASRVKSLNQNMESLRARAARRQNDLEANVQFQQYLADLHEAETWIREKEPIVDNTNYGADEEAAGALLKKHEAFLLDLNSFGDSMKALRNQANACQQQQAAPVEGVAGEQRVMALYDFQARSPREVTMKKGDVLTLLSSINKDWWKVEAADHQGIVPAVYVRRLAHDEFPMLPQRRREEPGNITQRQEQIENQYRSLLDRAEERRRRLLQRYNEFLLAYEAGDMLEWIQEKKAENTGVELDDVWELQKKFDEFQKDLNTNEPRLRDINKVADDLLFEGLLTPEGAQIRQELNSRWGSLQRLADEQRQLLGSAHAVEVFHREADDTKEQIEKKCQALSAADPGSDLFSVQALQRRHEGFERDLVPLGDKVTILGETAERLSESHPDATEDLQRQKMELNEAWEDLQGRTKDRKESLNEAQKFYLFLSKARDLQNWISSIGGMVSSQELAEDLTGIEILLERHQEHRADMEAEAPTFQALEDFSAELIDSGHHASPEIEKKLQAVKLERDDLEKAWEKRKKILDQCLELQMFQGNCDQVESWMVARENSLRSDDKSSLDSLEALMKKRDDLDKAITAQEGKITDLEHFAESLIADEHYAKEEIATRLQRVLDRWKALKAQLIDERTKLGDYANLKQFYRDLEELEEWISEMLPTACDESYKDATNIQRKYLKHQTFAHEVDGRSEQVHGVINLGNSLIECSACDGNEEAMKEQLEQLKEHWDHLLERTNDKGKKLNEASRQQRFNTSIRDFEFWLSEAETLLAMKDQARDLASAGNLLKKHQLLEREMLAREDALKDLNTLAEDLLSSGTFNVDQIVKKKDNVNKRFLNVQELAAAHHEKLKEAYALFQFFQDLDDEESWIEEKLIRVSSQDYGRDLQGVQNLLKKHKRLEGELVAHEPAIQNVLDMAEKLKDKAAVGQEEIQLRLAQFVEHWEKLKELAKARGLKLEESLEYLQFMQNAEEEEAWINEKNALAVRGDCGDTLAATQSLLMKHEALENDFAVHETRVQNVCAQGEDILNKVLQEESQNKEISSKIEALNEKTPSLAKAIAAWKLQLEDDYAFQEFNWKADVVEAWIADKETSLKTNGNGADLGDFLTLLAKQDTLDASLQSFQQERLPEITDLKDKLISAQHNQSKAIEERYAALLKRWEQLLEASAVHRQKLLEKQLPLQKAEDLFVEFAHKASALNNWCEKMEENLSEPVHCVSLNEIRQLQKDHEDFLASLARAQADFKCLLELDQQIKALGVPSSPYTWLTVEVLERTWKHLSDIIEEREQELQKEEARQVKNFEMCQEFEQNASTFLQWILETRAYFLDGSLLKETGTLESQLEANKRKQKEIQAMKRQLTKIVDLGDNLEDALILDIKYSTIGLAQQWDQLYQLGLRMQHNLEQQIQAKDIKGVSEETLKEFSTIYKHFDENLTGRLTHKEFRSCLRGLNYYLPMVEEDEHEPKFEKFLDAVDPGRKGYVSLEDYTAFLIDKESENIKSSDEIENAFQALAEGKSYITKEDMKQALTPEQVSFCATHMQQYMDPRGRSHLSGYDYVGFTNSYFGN", "T2 sequence (P11277 2-2137, chain 2 of 2)": "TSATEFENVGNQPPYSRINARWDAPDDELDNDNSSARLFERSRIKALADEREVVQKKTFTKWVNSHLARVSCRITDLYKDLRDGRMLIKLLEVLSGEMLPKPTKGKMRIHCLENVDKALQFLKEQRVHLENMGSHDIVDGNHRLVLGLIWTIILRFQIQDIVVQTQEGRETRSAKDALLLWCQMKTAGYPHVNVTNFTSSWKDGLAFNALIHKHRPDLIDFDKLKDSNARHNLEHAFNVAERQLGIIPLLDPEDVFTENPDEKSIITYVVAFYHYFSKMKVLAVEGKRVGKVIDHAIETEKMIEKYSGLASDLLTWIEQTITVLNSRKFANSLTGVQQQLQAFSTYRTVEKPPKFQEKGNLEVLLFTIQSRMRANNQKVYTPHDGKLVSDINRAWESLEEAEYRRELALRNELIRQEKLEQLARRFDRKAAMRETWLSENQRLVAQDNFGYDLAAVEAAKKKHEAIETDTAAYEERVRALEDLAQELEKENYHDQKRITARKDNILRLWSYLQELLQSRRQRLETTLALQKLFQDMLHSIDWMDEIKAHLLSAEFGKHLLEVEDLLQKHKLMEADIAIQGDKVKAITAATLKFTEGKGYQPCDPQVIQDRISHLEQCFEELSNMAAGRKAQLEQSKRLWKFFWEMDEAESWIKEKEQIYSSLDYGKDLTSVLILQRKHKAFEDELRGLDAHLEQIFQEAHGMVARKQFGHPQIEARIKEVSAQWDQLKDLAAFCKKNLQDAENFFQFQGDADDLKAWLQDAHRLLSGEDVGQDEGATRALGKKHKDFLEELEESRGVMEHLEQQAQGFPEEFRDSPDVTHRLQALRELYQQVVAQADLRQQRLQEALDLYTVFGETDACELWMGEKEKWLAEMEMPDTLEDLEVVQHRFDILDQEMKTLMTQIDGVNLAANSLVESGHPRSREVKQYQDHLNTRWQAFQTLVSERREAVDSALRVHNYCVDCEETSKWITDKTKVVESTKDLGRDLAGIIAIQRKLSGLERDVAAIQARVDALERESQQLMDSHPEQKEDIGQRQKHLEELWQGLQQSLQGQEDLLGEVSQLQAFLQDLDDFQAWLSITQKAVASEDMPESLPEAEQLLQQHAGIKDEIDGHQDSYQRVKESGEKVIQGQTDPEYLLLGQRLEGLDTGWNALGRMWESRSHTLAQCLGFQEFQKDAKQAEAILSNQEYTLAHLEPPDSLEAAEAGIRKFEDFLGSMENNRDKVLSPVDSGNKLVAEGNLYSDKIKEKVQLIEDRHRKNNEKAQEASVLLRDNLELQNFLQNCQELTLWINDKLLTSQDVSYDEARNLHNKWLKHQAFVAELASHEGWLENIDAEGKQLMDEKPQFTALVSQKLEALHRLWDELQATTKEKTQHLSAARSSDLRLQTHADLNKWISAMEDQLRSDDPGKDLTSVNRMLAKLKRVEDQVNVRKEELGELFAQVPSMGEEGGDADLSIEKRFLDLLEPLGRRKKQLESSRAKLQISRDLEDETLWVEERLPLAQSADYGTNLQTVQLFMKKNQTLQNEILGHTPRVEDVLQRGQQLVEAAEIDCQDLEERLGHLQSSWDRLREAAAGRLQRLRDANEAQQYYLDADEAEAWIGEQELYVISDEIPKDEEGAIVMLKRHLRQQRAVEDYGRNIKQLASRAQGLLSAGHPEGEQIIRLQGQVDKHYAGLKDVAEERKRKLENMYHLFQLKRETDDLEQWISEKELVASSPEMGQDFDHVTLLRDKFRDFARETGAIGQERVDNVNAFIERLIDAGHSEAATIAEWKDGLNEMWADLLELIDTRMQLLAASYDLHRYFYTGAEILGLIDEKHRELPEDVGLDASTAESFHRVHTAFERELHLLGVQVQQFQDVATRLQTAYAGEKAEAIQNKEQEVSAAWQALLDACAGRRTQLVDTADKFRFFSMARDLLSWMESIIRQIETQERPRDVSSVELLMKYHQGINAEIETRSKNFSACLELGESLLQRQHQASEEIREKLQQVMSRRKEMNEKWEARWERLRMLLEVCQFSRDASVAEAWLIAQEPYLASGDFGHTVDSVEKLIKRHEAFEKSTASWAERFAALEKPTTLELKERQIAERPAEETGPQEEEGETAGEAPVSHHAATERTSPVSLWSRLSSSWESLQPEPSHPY", "experiment": "ELISA, spectrin coated, biotinylated soluble protein, SA-HRP", "procedure": "ELISA plates (Costar, Broadway, Cambridge, UK) were coated overnight at 4° C. with […] of Spectrin (purified from human erythrocytes, Sigma, #S3644) or Actin (Sigma). Unbound proteins were washed away (PBS, 0.05% Tween-20), and the ELISA plates blocked with PBS, 1% BSA. Serially diluted biotinylated purified mClec9A-ecto, mClec9A-CTLD and Cire soluble proteins were plated (PBS, 1% BSA) and incubated at 4° C. overnight. Bound soluble proteins were detected using Streptavidin-HRP and visualised using ABTS."}, "[3]": {"target": "T3, GST-RNF41 72-317 (RNF41 transcript variant 2 as glutathione S-transferase fusion protein) (human, UniProt Q5R7T5 72-317 (Pongo abelii entry), N-terminal GST fusion, immobilised on Glutathione-Sepharose beads; carrier not in the letters)", "T3 construct": "Expressed in BL21 (DE3) E. coli and immobilised on Glutathione-Sepharose 4B; not shown: GST carrier (glutathione S-transferase of the modified pGEX-2T vector) and any linker at the N end", "T3 sequence": "T1 sequence", "experiment": "pull-down on glutathione beads, anti-FLAG Western blot", "procedure": "(§1) Glutathione Sepharose resin coupled with either GST or GST-RNF41 proteins was resuspended in the binding buffer (0.2% NP-40 and 2% glycerol in 20 mM Tris-buffered saline, pH 7.5 containing complete protease inhibitor cocktail mixture (Roche) and 1 mM PMSF) and mixed with 1 μg/m purified FLAG-tagged soluble Clec9A (also in binding buffer) and incubated at 4° C. on a rotating wheel for 2 hours. The beads were washed extensively with the binding buffer to remove unbound proteins. Bound proteins were eluted from the beads by the addition of 2×SDS reducing sample and heated at 92° C. for 5 minutes. The eluted proteins were separated by SDS-PAGE followed by Western blot with anti-FLAG antibody.\n(§2) The inventors subcloned and expressed full length RNF41 (RNF41FL), and RNF41 transcript variant 2 (RNF41₇₂₋₃₁₇) as GST-RNF41 fusion proteins in bacterial cells. The fusion proteins were immobilized onto glutathione beads, and incubated with mClec9A-ecto or with the control mClec12A-ecto. mClec9A-ecto directly bound to both GST-RNF41FL and GST-RNF41₇₂₋₃₁₇, but not to GST alone (FIG. 13). […] This confirmed that mClec9A binds specifically to RNF41."}, "[4]": {"target": "T4, GST-RNF41FL (full length RNF41 as glutathione S-transferase fusion protein) (human, UniProt Q5R7T5 1-317 (Pongo abelii entry))", "T4 construct": "Expressed in BL21 (DE3) E. coli, solubilised with Sarcosyl and immobilised on Glutathione-Sepharose 4B; also called GST-RNF41 fusion protein; not shown: glutathione S-transferase (GST) of a modified pGEX-2T vector (GE Healthcare)", "T4 sequence": "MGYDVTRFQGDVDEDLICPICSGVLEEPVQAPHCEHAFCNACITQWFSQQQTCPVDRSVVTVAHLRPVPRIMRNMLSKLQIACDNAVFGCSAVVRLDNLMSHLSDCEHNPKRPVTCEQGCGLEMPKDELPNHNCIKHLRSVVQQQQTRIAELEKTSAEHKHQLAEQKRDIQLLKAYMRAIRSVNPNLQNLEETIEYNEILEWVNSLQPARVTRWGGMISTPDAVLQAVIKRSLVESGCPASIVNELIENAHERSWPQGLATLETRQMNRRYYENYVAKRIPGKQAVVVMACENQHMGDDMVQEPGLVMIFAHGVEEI", "experiment": "pull-down on glutathione beads, anti-FLAG Western blot", "procedure": "as §1, §2"}, "[5]": {"target": "T5, membrane bound mouse 5B6 on transiently transfected 293T cells (full length untagged m5B6, pIRES-Neo) (mouse)", "T5 construct": "also called mouse Clec9A", "T5 chain": "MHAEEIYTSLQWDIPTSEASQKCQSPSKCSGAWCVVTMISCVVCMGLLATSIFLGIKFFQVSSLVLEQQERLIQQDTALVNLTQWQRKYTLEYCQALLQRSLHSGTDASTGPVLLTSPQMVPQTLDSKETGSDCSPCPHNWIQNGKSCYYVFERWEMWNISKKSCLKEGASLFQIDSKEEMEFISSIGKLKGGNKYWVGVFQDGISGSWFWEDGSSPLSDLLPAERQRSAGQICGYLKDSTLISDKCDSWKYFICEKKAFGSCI", "experiment": "flow cytometry on transiently transfected live 293T cells, soluble FLAG-tagged protein", "text": "(§3) Two-three days later, cells were harvested and surface immunofluorescence labeled using either (1) soluble FLAG-tagged biotinylated m5B6, h5B6 and Cire, and detected with Streptavidin PE, or (2) soluble FLAG-tagged 5B6, biotinylated anti-FLAG mAb 9H10, and Streptavidin-PE. Live cells were gated on forward and side scatter, or by propidium iodide exclusion and analysed for their surface binding of soluble 5B6."}, "[6]": {"target": "T6, membrane bound human 5B6 on transiently transfected 293T cells (full length untagged h5B6, pIRES-Neo) (human, UniProt Q6UXN8 1-241)", "T6 construct": "also called human CLEC9A", "T6 sequence (Q6UXN8 whole entry)": "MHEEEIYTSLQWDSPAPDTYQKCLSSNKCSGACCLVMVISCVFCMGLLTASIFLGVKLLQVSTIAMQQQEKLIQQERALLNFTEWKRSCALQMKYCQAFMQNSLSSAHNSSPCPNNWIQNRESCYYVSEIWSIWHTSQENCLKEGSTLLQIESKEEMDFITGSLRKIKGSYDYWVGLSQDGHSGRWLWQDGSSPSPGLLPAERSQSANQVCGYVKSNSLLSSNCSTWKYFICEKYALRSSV", "experiment": "flow cytometry on transiently transfected live 293T cells, soluble FLAG-tagged protein", "text": "as §3"}, "[7]": {"target": "T7, GST protein (control, plasmid control) (UniProt P08515 1-218 = GST)", "T7 construct": "also called GST alone; GST control", "T7 sequence (P08515 whole entry)": "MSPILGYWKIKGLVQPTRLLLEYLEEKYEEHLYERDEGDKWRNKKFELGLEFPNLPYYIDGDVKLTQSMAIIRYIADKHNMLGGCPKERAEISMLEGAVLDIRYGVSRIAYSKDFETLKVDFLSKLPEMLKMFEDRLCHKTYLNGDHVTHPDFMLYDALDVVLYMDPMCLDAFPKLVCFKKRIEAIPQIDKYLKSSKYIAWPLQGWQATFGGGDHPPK", "experiment": "pull-down on glutathione beads, anti-FLAG Western blot", "procedure": "as §1, §2"}}}
{"binder": "B1", "values": [{"measurement": "binding result", "setting": "[1]", "value": "no binding (tested: 50 µg/ml)"}, {"measurement": "binding result", "setting": "[2]", "value": "no binding"}]}
{"binder": "B2", "values": [{"measurement": "binding result", "setting": "[3]", "value": "no binding (tested: 1 µg/m)"}, {"measurement": "binding result", "setting": "[4]", "value": "no binding (tested: 1 µg/m)"}]}
{"binder": "B3", "values": [{"measurement": "binding result", "setting": "[5]", "value": "binds"}, {"measurement": "binding result", "setting": "[6]", "value": "binds"}]}
{"binder": "B4", "values": [{"measurement": "binding result", "setting": "[7]", "value": "no binding (tested: 1 µg/m)"}, {"measurement": "binding result", "setting": "[5]", "value": "binds"}, {"measurement": "binding result", "setting": "[6]", "value": "binds"}]}
